Molecular target: T1, osteoprotegerin (OPG) (UniProt O00300 22-401)
T1 construct: osteoprotegerin (OPG)
T1 sequence (looked up): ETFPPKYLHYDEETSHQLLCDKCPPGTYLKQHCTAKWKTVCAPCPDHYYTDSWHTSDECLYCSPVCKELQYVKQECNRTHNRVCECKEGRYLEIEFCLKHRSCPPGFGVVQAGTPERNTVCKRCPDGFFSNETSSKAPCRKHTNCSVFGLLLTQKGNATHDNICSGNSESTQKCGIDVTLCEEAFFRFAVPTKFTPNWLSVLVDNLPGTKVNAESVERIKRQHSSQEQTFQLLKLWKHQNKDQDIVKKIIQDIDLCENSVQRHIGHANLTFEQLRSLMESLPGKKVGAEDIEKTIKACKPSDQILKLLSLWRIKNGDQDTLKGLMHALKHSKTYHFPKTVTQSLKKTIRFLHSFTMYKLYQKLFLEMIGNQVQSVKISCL
Assay: non-cell based binding assay; binding to human RANKL, as previously described (ref. 14); format and conditions not told

B1: human receptor activator of nuclear factor kappa B ligand (RANKL) (ligand, UniProt O14788 140-317, looked up)
chain: IRAEKAMVDGSWLDLAKRSKLEAQPFAHLTINATDIPSGSHKVSLSSWYHDRGWAKISNMTFSNGKLIVNQDGFYYLYANICFRHHETSGDLATEYLQLMVYVTKTSIKIPSSHTLMKGGSTKYWSGNSEFHFYSINVGGFFKLRSGEEISIEVSNPSLLDPDQDATYFGAFKVRDID
notes: also called human RANKL; huRANKL; source: recombinant protein huRANKL, provided by Amgen Inc
B1 was tested, and the Kd was ~630 pM.

From paper PMC8124205, “Immuno-PET Molecular Imaging of RANKL in Cancer” (Cancers, 2021)
